Measurements reported in patent US20230374151A1 (GlaxoSmithKline, published 2023).
Positions count from the first letter of the chain named.

T1: MUC1 peptide (non-glycosylated), biotinylated (N-terminal Biotin-PEG2; C-terminal amide)
T1 construct: also called 36-4; 7-36-4
T1 peptide: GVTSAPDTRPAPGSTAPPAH

B1: humanised anti-TnMUC1 scFv L2-H1 (construct 6D14) (scFv)
scFv: DIVMTQSPDSLAVSLGERATINCKSSQSLLNSGDQKNYLTWYQQKPGQPPKLLIFWASTRESGVPDRFSGSGSGTDFTLTISSLQAEDVAVYYCQNDYSYPLTFGQGTKLEIKGGGGSGGGGSGGGGSGGGGSQVQLVQSGAEVKKPGSSVKVSCKASGYTFTDHAIHWVRQAPGQGLEWMGHFSPGNTDIKYNDKFKGRVTITADKSTSTAYMELSSLRSEDTAVYYCARSTFFFDYWGQGTTVTVSSAAAHHHHHH
B2: humanised anti-TnMUC1 scFv L2-H2 (construct 6D15) (scFv)
scFv: B1 scFv with M181I, V201A, I203L, A205V, K207R
B3: humanised anti-TnMUC1 scFv L3-H1 (construct 6D20) (scFv)
scFv: B1 scFv with D1E, I2L
B4: humanised anti-TnMUC1 scFv L3-H4 (construct 6D23) (scFv)
scFv: B1 scFv with D1E, I2L, Y228F
B5: humanised anti-TnMUC1 scFv L2-H4 (construct 6D17) (scFv)
scFv: B1 scFv with Y228F
B6: humanised anti-TnMUC1 scFv L0-H1 (construct 6D2) (scFv)
scFv: B1 scFv with F55Y
B7: humanised anti-TnMUC1 scFv L1-H1 (construct 6D8) (scFv)
scFv: B1 scFv with D1E, I2L, F55Y
B8: humanised anti-TnMUC1 scFv L1-H2 (construct 6D9) (scFv)
scFv: B1 scFv with D1E, I2L, F55Y, M181I, V201A, I203L, A205V, K207R
B9: humanised anti-TnMUC1 scFv L3-H2 (construct 6D21) (scFv)
scFv: B1 scFv with D1E, I2L, M181I, V201A, I203L, A205V, K207R
B10: humanised anti-TnMUC1 scFv L0-H4 (construct 6D5) (scFv)
scFv: B1 scFv with F55Y, Y228F
B11: humanised anti-TnMUC1 scFv L0-H2 (construct 6D3) (scFv)
scFv: B1 scFv with F55Y, M181I, V201A, I203L, A205V, K207R
B12: humanised anti-TnMUC1 scFv L3-H3 (construct 6D22) (scFv)
scFv: B1 scFv with D1E, I2L, A230K, R231T
B13: humanised anti-TnMUC1 scFv H3-L3, VH-VL orientation (construct 6D25) (scFv)
scFv: QVQLVQSGAEVKKPGSSVKVSCKASGYTFTDHAIHWVRQAPGQGLEWMGHFSPGNTDIKYNDKFKGRVTITADKSTSTAYMELSSLRSEDTAVYYCKTSTFFFDYWGQGTTVTVSSGGGGSGGGGSGGGGSGGGGSELVMTQSPDSLAVSLGERATINCKSSQSLLNSGDQKNYLTWYQQKPGQPPKLLIFWASTRESGVPDRFSGSGSGTDFTLTISSLQAEDVAVYYCQNDYSYPLTFGQGTKLEIKAAAHHHHHHH

Target: T1, MUC1 peptide (non-glycosylated), …
Experiment: Octet BLI, biotinylated peptide on streptavidin sensors
Method: Biotinylated MUC1 peptide (7-36-4) and TnMUC1 peptide (7-36-2) were diluted to 10 μg/ml in Octet Running Buffer (1×PBSF) and loaded onto Octet SA (streptavidin) sensors. The positive control proteins were tested in the Octet assay at a single concentration of 500 nM. All humanised anti-Tn MUC1 scFv expression supernatants were assayed neat.
Data was analysed using the data acquisition software fortéBIO version 8.0.2.5 and the data analysis software fortéBIO version 8.0.2.3.

binding result	Binder
no binding (tested: neat supernatant)	B1
no binding (tested: neat supernatant)	B2
no binding (tested: neat supernatant)	B3
no binding (tested: neat supernatant)	B4
no binding (tested: neat supernatant)	B5
no binding (tested: neat supernatant)	B6
no binding (tested: neat supernatant)	B7
no binding (tested: neat supernatant)	B8
no binding (tested: neat supernatant)	B9
no binding (tested: neat supernatant)	B10
no binding (tested: neat supernatant)	B11
no binding (tested: neat supernatant)	B12
no binding (tested: neat supernatant)	B13
